Results published in article PMC13218038 (ACS Nano, 2026).

Target: the molecule itself
Test: SDS-PAGE of unboiled and boiled samples

B1: cholera toxin B-subunit (CTB) (natural protein)
chain: TPQNITDLCAEYHNTQIYTLNDKIFSYTESLAGKREMAIITFKNGAIFQVEVPGSQHIDSQKKAIERMKDTLRIAYLTEAKVEKLCVWNNKTPHAIAAISMAN
With B1 the “stoichiometry N” value was 5.
